Measured values as given in PMC6497250, “High-resolution cryo-EM structures of the E. coli hemolysin ClyA oligomers” (PLoS ONE, 2019).
Where “and” joins values, the source holds several entries; their conditions need not be identical. Identical values can stand only once.

Tests used:
[1] = molecular target: the molecule itself; test: cryo-EM structure; digitonin-induced intermediate state; Talos Arctica; 2D class averages and a map at 16 Å
[2] = molecular target: the molecule itself; test: negative staining EM; ClyA incubated with 1% digitonin overnight, fractions from SEC (Superose 6 10/300 GL); intermediate state
[3] = molecular target: the molecule itself; test: cryo-EM structure; sample #3: ClyA 2.5 mg/mL with 0.5% DDM and 5 mM DTT at 4°C overnight, then SEC in 25 mM Tris-HCl pH 8.0, 150 mM NaCl, 0.05% digitonin, 2 mM DTT; Titan Krios 300 kV; C12, C13, C14 classes
[4] = molecular target: the molecule itself; test: cryo-EM structure; sample #1: pore complexes in DDM, all SEC fractions pooled; Talos Arctica 200 kV; maps at 6.8 Å and 7.5 Å

B1: E. coli cytolysin A (ClyA) with complete N-terminal purification tag (natural protein)
chain: MTEIVADKTVEVVKNAIETADGALDLYNKYLDQVIPWQTFDETIKELSRFKQEYSQAASVLVGDIKTLLMDSQDKYFEATQTVYEWCGVATQLLAAYILLFDEYNEKKASAQKDILIKVLDDGITKLNEAQKSLLVSSQSFNNASGKLLALDSQLTNDFSEKSSYFQSQVDKIRKEAYAGAAAGVVAGPFGLIISYSIAAGVVEGKLIPELKNKLKSVQNFFTTLSNTVKQANKDIDAAKLKLTTEIVAIGEIKTETETTRFYVDYDDLMLSLLKEAAKKMINTCNEYQKRHGKKTLFEVPEV
notes: E. coli cytolysin A (ClyA), cDNA amplified from BL21 (DE3), mutations and deletions removed by two-step PCR; final plasmid has A248V compared to UniProtKB P77335; The soluble protein is a monomer; the oligomers (12, 13, 14, about 3) form with detergent; also called hemolysin (HlyE); silent hemolysin A (SheA); source: E. coli BL21 (DE3), purified (Ni2+-NTA, Mono Q anion exchange); not shown: His6, …
- stoichiometry N [1]: 3 and 4
- stoichiometry N [2]: ~3
- stoichiometry N [3]: 14
- stoichiometry N [4]: 12 and 13
